Tests used:
[1] = target: G-CSF receptor on NFS-60 cells (mouse (endogenous in NFS-60)) (UniProt P40223); experiment: radioligand binding
[2] = target: Tf receptor on Caco-2 cells (human (endogenous in Caco-2)) (UniProt P02786); experiment: radioligand binding
Chain of UniProt P02786 (P02786 whole entry): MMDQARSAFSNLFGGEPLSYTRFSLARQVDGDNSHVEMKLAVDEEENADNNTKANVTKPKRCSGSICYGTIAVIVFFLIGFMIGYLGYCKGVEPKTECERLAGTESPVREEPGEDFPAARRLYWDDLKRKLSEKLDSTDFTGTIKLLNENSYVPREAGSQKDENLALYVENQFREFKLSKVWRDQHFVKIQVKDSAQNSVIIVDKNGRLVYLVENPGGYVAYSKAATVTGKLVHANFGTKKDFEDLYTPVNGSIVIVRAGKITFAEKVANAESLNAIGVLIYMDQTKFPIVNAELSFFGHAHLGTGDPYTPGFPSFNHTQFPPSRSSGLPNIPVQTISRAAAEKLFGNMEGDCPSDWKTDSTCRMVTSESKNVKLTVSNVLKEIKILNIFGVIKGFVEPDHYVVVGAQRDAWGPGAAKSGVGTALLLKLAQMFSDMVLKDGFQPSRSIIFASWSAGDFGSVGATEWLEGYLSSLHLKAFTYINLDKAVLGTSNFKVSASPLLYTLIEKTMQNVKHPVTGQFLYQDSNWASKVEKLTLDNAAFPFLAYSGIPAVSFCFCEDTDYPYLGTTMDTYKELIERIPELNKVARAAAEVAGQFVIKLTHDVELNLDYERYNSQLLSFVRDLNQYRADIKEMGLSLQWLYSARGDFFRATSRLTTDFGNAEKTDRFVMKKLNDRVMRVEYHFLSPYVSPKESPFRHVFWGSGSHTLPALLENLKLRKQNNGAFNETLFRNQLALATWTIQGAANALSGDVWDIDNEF

Chain of UniProt P40223 (P40223 26-837): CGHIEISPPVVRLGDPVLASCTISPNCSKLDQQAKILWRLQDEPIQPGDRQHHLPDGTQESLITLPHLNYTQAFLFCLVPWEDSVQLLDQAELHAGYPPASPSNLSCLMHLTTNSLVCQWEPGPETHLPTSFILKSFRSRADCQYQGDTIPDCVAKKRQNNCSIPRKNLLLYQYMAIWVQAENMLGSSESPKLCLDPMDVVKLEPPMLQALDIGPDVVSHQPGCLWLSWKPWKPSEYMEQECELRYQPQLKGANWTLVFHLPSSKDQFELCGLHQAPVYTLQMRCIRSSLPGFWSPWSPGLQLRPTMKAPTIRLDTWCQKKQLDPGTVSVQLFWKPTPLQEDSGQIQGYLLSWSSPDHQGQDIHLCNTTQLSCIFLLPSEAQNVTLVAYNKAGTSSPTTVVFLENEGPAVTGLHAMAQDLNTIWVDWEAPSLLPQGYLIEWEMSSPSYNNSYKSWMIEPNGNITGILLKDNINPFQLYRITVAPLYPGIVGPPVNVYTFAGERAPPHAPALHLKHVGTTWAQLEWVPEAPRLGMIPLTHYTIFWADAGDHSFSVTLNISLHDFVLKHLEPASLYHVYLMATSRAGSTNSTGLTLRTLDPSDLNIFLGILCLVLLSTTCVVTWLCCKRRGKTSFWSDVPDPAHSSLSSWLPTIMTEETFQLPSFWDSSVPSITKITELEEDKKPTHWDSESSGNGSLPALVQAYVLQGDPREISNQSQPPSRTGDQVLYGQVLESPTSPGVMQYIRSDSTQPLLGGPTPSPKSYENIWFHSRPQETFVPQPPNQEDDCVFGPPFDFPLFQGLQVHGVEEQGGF

| Substance | IC50 [1] [nM] | IC50 [2] [nM] |
| --- | --- | --- |
| G-CSF-LE-Tf fusion protein (dipeptide linker) | 38 | 7.5 |
| GH-LE-Tf fusion protein (dipeptide linker) |  | 21.2 |
| recombinant human G-CSF, aglycosylated (Neupogen) (from UniProt P09919-2 31-204) (ligand) | 113 |  |
